From patent publication US20160052997A1
“And” between values parts separate entries of the source, which are not always exact repeats. Identical values can stand only once. Like-named read-outs stand apart in the source and are kept apart here.

Assays:
[1] = molecular target: HA of A/Shanghai/2/2013 (H7N9) virus (Influenza A virus A/Shanghai/2/2013 (H7N9)); test: cell-based or functional assay
[2] = molecular target: HA of A/Sydney/5/97 (H3N2) virus (Influenza A virus A/Sydney/5/97 (H3N2)); test: cell-based or functional assay
[3] = molecular target: HA of A/PuertoRico/8/34 (H1N1) virus (Influenza A virus A/PuertoRico/8/34 (H1N1)) (UniProt P03452); test: cell-based or functional assay
[4] = molecular target: HA of A/Ohio/07/2009 (H1N1) virus (Influenza A virus A/Ohio/07/2009 (H1N1)); test: cell-based or functional assay
[5] = molecular target: HA of Anhui/1/05 (H5N1) virus (Influenza A virus A/Anhui/1/05 (H5N1)); test: cell-based or functional assay
[6] = molecular target: HA of A/Solomon Islands/2006 (H1N1) virus (Influenza A virus A/Solomon Islands/3/2006 (H1N1)); test: cell-based or functional assay
[7] = molecular target: HA of A/Perth/16/09 (H3N2) virus (Influenza A virus A/Perth/16/09 (H3N2)); test: cell-based or functional assay
[8] = molecular target: HA of A/Ann Arbor/6/60 ca (H2N2) virus (Influenza A virus A/Ann Arbor/6/60 ca (H2N2)); test: cell-based or functional assay
[9] = molecular target: HA of A/ck/HK/G9/97 (H9N2) virus (Influenza A virus A/ck/HK/G9/97 (H9N2)); test: cell-based or functional assay
[10] = molecular target: HA of A/Ohio/83 (H1N1) virus (Influenza A virus A/Ohio/83 (H1N1)); test: cell-based or functional assay
[11] = molecular target: HA of A/Texas/05/2009 (H1N1) virus (Influenza A virus A/Texas/05/2009 (H1N1)); test: cell-based or functional assay
[12] = molecular target: HA of A/Anhui/1/2013 (H7N9) virus (Influenza A virus A/Anhui/1/2013 (H7N9)); test: cell-based or functional assay
[13] = molecular target: HA of A/Beijing/32/92-R-H3N2 PR8 virus (Influenza A virus A/Beijing/32/92 (H3N2)); test: cell-based or functional assay
[14] = molecular target: purified recombinant HA protein of H3N2 (A/Brisbane/10/07) (Influenza A virus A/Brisbane/10/07 (H3N2)); test: SPR, Biacore T200, HA captured via anti-6x his tag antibody, 25 C
[15] = molecular target: purified recombinant HA protein of H7N9 (A/Shanghai/1/2013) (Influenza A virus A/Shanghai/1/2013 (H7N9)); test: as above
[16] = molecular target: purified recombinant HA protein of H3N2 (A/Philippines/2/82) (Influenza A virus A/Philippines/2/82 (H3N2)); test: as above
[17] = molecular target: purified recombinant HA protein of H3N2 (A/Wisconsin/67/05) (Influenza A virus A/Wisconsin/67/05 (H3N2)); test: as above
[18] = molecular target: purified recombinant HA protein of H1N1 (A/Ohio/07/09) (Influenza A virus A/Ohio/07/09 (H1N1)); test: as above
[19] = molecular target: purified recombinant HA protein of H1N1 (A/Texas/05/09) (Influenza A virus A/Texas/05/09 (H1N1)); test: as above
[20] = molecular target: purified recombinant HA protein of H5N1 (A/Vietnam/1203/04) (Influenza A virus A/Vietnam/1203/04 (H5N1)); test: as above
[21] = molecular target: purified recombinant HA protein of H7N9 (A/Anhui/1/2013) (Influenza A virus A/Anhui/1/2013 (H7N9)); test: as above
[22] = molecular target: purified recombinant HA protein of H7N7 (A/England/268/96) (Influenza A virus A/England/268/96 (H7N7)); test: as above
[23] = molecular target: purified recombinant HA protein of H5N1 (A/Vietnam/1203/04) (Influenza A virus A/Vietnam/1203/04 (H5N1))
[24] = molecular target: purified recombinant HA protein of H3N2 (A/Wisconsin/67/05) (Influenza A virus A/Wisconsin/67/05 (H3N2))
[25] = molecular target: purified recombinant HA protein of H7N9 (A/Anhui/1/2013) (Influenza A virus A/Anhui/1/2013 (H7N9))
[26] = molecular target: purified recombinant HA protein of H3N2 (A/Philippines/2/82) (Influenza A virus A/Philippines/2/82 (H3N2))
[27] = molecular target: purified recombinant HA protein of H1N1 (A/Ohio/07/09) (Influenza A virus A/Ohio/07/09 (H1N1))
[28] = molecular target: purified recombinant HA protein of H1N1 (A/Texas/05/09) (Influenza A virus A/Texas/05/09 (H1N1))
[29] = molecular target: purified recombinant HA protein of H3N2 (A/Brisbane/10/07) (Influenza A virus A/Brisbane/10/07 (H3N2))
[30] = molecular target: purified recombinant HA protein of H7N9 (A/Shanghai/1/2013) (Influenza A virus A/Shanghai/1/2013 (H7N9))
[31] = molecular target: purified recombinant HA protein of H7N7 (A/England/268/96) (Influenza A virus A/England/268/96 (H7N7))

Sequence of CT149 (antibody) (VH): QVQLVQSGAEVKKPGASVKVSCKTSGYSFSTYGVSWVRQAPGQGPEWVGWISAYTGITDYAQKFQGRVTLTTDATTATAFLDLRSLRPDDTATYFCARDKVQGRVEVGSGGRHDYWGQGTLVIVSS
Sequence of CT149 (antibody) (VL): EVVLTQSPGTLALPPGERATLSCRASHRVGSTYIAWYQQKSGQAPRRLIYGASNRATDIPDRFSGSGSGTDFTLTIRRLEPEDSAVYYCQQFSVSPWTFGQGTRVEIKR

## CT-P27
[1]
  EC50, microneutralization test (Contract Lab A): 3.55 µg/mL
  EC50, microneutralization test (Contract Lab B): 13.1 µg/mL
[2]
  EC50, microneutralization test: 6.53 µg/mL
[3]
  EC50, microneutralization test: 0.67 µg/mL
[4]
  EC50, microneutralization test: 0.29 µg/mL
[5]
  EC50, microneutralization test: 8.02 µg/mL
[6]
  EC50, microneutralization test: 0.27 µg/mL
[7]
  EC50, microneutralization test: 3.99 µg/mL
[8]
  EC50, microneutralization test: 12.7 µg/mL
[9]
  EC50, microneutralization test: 5.09 µg/mL
[10]
  EC50, microneutralization test: 0.73 µg/mL
[11]
  EC50, microneutralization test: 2.05 µg/mL
[12]
  EC50, microneutralization test (Contract Lab A): 2.38 µg/mL
[13]
  EC50, microneutralization test: 3.1 µg/mL

## CT149 (antibody)
[14]
  Kd: 1.77 nM and 1.85 nM
  koff: 0.000316 s⁻¹ and 0.000319 s⁻¹
  kon: 179000 M⁻¹ s⁻¹ and 173000 M⁻¹ s⁻¹
[15]
  Kd: 0.142 nM and 0.155 nM
  koff: 0.0028 s⁻¹ and 0.00285 s⁻¹
  kon: 1.97e+07 M⁻¹ s⁻¹ and 1.83e+07 M⁻¹ s⁻¹
[16]
  Kd: 0.0502 nM and 0.0411 nM
  koff: 1.47e-05 s⁻¹ and 1.17e-05 s⁻¹
  kon: 292000 M⁻¹ s⁻¹ and 285000 M⁻¹ s⁻¹
[17]
  Kd: 86 nM and 91.3 nM
  koff: 0.00723 s⁻¹ and 0.00745 s⁻¹
  kon: 84100 M⁻¹ s⁻¹ and 81600 M⁻¹ s⁻¹
[18]
  Kd: 50.9 nM and 51.7 nM
  koff: 0.0379 s⁻¹ and 0.0387 s⁻¹
  kon: 746000 M⁻¹ s⁻¹ and 747000 M⁻¹ s⁻¹
[19]
  Kd: 33.6 nM and 34.1 nM
  koff: 0.0558 s⁻¹ and 0.0562 s⁻¹
  kon: 1.66e+06 M⁻¹ s⁻¹ and 1.65e+06 M⁻¹ s⁻¹
[20]
  Kd: 2.96 nM and 2.93 nM
  koff: 0.00391 s⁻¹ and 0.00386 s⁻¹
  kon: 1.32e+06 M⁻¹ s⁻¹
[21]
  Kd: 0.165 nM and 0.201 nM
  koff: 0.00326 s⁻¹ and 0.00316 s⁻¹
  kon: 1.98e+07 M⁻¹ s⁻¹ and 1.57e+07 M⁻¹ s⁻¹
[22]
  Kd: 4.4 nM and 4.43 nM
  koff: 0.00176 s⁻¹ and 0.0018 s⁻¹
  kon: 401000 M⁻¹ s⁻¹ and 406000 M⁻¹ s⁻¹
[23]
  Kd: 2.94 nM
[24]
  Kd: 88.6 nM
[25]
  Kd: 0.183 nM
[26]
  Kd: 0.0456 nM
[27]
  Kd: 51.3 nM
[28]
  Kd: 33.8 nM
[29]
  Kd: 1.81 nM
[30]
  Kd: 0.149 nM
[31]
  Kd: 4.41 nM
